# According to US10591466B2, “In vitro blood-brain barrier model” (priority 2014, dated 2020):
# Values joined by “and” are separate entries in the source; they are usually repeats but may differ in a detail not shown here. Equal values may be shown once. “Also recorded” adds a separate entry of the source. Read-outs that look alike come from different tables or passages of the source.
# B1: VHH A12: alpaca VHH with the sequence of SEQ ID NO:3, selected from an immune library; does not recognize any human brain protein (protein)
# VHH: EVQLQASGGGLAQPGGSLRLSVTVSGSIDVINNMAWYRQAPGNARELVATITSGFSTNYASSVKGRFTISRDNAKKAVYLQMNSLKPEDTADYYSKVHLIRLGAARAYDYWGQGTQVTVS
# Tests used:
# [1] = Isoelectric point (pI) of VHH / VHH-comprising polypeptide; type: physicochemical
# [2] = test system: mouse brain extract (Tg 4510); test: Western blotting of VHH on mouse brain extract; type: binding; settings: VHH 1 μg/ml
# Procedure: (§1) The specificity of the VHH of the invention (A12) as compared to a control VHH recognizing brain proteins (H8/E9, identical to VHH E9, Perruchini et al.) was determined by western blotting on 3 different antigens: a human brain extract (Sg tau 4697), a mouse brain extract (Tg 4510) and on a purified protein, GFAP, a specific marker of astrocytes. […] Furthermore, VHH immunohistochemistry was performed from Tg4510 mouse tissues (Grueninger et al, 2010) harbouring NFTs. […] For western blotting, first we performed a polyacrylamide gel electrophoresis at 200 V for 45 min. Then we transferred proteins from gel to nitrocellulose membrane during 1H at 30 V. We saturated nitrocellulose membrane with PBS milk 2% for 1H under stirring. The membrane was then incubated for 1H with selected VHH diluted at 1 μg/ml in PBS milk 2%, and washed 3 times 5 min with PBS Tween. A secondary mouse mAb C23-21 recognizing Strep-tag (DI 2012-32 High-affinity monoclonal anti-Strep-Tag antibody C23.21; Girard-blanc C., Krey T., Vasiliauskaite ieva, Nato F., Lafaye P., Dartevelle S., Rey F.) was added at 1:2500 and incubated 1H at 37° C. Then after additional washes, an anti-mouse mAb labelled with peroxidase was added for 1 H. Three washes of 5 min in PBS Tween were performed.
# [3] = test system: Tg 4510 mouse brain tissue; test: Immunohistochemistry on Tg 4510 mouse brain sections; type: binding; settings: Tg 4510 paraffin-embedded mouse brain sections
# Procedure: as §1
# [4] = biological target: GFAP (glial fibrillary astrocytic protein) (Homo sapiens, UniProt P14136); test: Western blotting of VHH on purified GFAP; type: binding; settings: VHH 1 μg/ml
# Procedure: as §1
# [5] = test system: human brain extract (Sg tau 4697); test: Western blotting of VHH on human brain extract; type: binding; settings: VHH 1 μg/ml
# Procedure: as §1
# Chain of GFAP (glial fibrillary astrocytic protein) (P14136 whole entry, species assumed): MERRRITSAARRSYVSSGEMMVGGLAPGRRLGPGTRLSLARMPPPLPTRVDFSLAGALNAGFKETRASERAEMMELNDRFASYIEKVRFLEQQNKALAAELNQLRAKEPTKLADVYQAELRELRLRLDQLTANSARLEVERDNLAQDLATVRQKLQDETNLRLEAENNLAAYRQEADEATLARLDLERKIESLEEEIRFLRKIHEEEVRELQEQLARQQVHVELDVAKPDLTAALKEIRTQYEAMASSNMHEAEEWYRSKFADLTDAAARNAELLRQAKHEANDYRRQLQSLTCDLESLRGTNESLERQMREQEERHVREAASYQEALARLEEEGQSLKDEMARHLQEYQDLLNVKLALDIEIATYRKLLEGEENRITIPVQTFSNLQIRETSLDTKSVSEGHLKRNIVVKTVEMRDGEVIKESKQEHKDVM
Molecule,isoelectric point (pI) [1],isoelectric point (pI) ([1]; listed as SEQ ID NO:3),reactivity by western blotting against mouse brain extract [2],reactivity by western blotting against mouse brain extract ([2]; listed as VHH A2),immunoreactivity / labelling by immunohistochemistry [3],reactivity by western blotting against GFAP [4],reactivity by western blotting against GFAP ([4]; listed as VHH A2),reactivity by western blotting against human brain extract [5],reactivity by western blotting against human brain extract ([5]; listed as VHH A2)
RRVNRSEPTQHNLRGTGREVSVTPQSGKIISSWEVHGQQTRL [Neurovita 3],basic,–,–,–,–,–,–,–,–
B1,9.78 and > 8.5 and 9.86,> 9,no reactivity; also recorded: not to recognize any brain protein,no bands were detected,no immunoreactivity; also recorded: no labelling was observed; also recorded: not to recognize any brain protein,no reactivity; also recorded: not to recognize any brain protein,no bands were detected,does not recognize any human brain protein; also recorded: no reactivity; also recorded: not to recognize any brain protein,no bands were detected
